Test results taken from article doi:10.1101/2024.08.24.609485.

Molecular target: GST-N-WASP-PRD (human) (UniProt O00401)
Assay: mass photometry

stoichiometry N: 2
Substance: GST-N-WASP-PRD (from UniProt O00401 261-332) (domain or fragment)
